To fix the notation:
B1: 365_F07 (antibody, V domains shown)
VH: EVQLLESGGGLVQPGGSLRLSCAASGFTFSSYSMNWVRQAPGKGLEWVSNINYNGGYKSYADSVKGRFTISRDNSKNTLYLQMNSLRAEDTAVYYCARSATWHDTALDYWGQGTLVTVSS
VL: DIQMTQSPSSLSASVGDRVTITCRASQSILSYVNWYQQKPGKAPKLVIYAATSRASGVPSRFSGSGSGTDFTLTISSLQPEDFATYYCQQSYDLPLTFGGGTKVEIK
notes: VH/VL only
B2: 366_C01 (antibody, V domains shown)
VH: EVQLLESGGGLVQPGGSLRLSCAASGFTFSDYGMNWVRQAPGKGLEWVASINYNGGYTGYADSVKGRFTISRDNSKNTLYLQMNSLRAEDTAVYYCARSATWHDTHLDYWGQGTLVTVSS
VL: B1 VL with L30V, S31T, V33L, V47L, R54P, D93E
notes: VH/VL only
B3: 367_A09 (antibody, V domains shown)
VH: B1 VH with S30D, S33G, S49A, N50G, K58T, A106H
VL: B1 VL with A55H, L94T
notes: VH/VL only
B4: 368_C06 (antibody, V domains shown)
VH: B1 VH with S30D, S49A, N50G, A106H
VL: not shown
notes: VH/VL only
B5: 368_H07 (antibody, V domains shown)
VH: B1 VH with S33G, N35H, S49A, N50S, G55S, K58T, A106H
VL: B1 VL with V33L, V47L, D93E, L94N
notes: VH/VL only
B6: 367_E02 (antibody, V domains shown)
VH: B1 VH with S30D, S49A, N50G, K58T, S59G, A106H
VL: not shown
notes: VH/VL only
B7: 368_H01 (antibody, V domains shown)
VH: B1 VH with S49A, N50G, G55S, A106H
VL: B1 VL with V33L, V47L, A51T, R54L, L94N
notes: VH/VL only
B8: 366_H05 (antibody, V domains shown)
VH: B1 VH with S30D, S33G, N35H, S49A, N50S, K58T, A106H
VL: B1 VL with V47L, R54L
notes: VH/VL only
B9: 366_D02 (antibody, V domains shown)
VH: B1 VH with S49A, N50S, K58T, A106H
VL: B1 VL with V47L, A51T, R54L
notes: VH/VL only
B10: 368_D10 (antibody, V domains shown)
VH: B1 VH with S30D, S33G, S49A, N50G, G55S, K58T
VL: B1 VL with V33L, L94S
notes: VH/VL only
B11: 366_A09 (antibody, V domains shown)
VH: B1 VH with S31D, S33G, N35H, S49A, N50S, G55S, K58T, A106H
VL: B1 VL with S31T, V33L, V47L, A55H, D93E, L94T
notes: VH/VL only
B12: 368_F12 (antibody, V domains shown)
VH: B1 VH with S30D, S31D, S49A, N50S, G55S, A106H
VL: B1 VL with L30V, S31T, V33L, R54L
notes: VH/VL only
B13: 367_G07 (antibody, V domains shown)
VH: B1 VH with S30D, S49A, K58T, S59G, A106H
VL: B1 VL with S31T, V47L, L94N
notes: VH/VL only
B14: 367_H07 (antibody, V domains shown)
VH: B1 VH with S49A, K58T, S59G
VL: B1 VL with A51T, D93E, L94N
notes: VH/VL only
B15: 368_C01 (antibody, V domains shown)
VH: B1 VH with S30D, S33G, S49A, N50G, K58T, S59G
VL: B1 VL with L30I, S31T, V33L, V47L, L94S
notes: VH/VL only
B16: 366_A03 (antibody, V domains shown)
VH: B1 VH with S30D, S49A, N50G, G55S, S59G, A106H
VL: B1 VL with L30S, V33L, V47L, R54L, D93S, L94N
notes: VH/VL only
B17: 368_H12 (antibody, V domains shown)
VH: B1 VH with S30D, S49A, N50S, G55S, S59G, A106H
VL: B1 VL with L30V, S31T, V33L, V47L, D93E, L94S
notes: VH/VL only
B18: 367_F02 (antibody, V domains shown)
VH: B1 VH with S30D, S49A, K58T, A106H
VL: B1 VL with L30I, V47L, A55H, D93E, L94S
notes: VH/VL only
B19: 365_F08 (antibody, V domains shown)
VH: B1 VH with S30D, S31D, S33G, S49A, K58T, A106H
VL: B1 VL with V47L, A55H, D93S
notes: VH/VL only
B20: 368_G09 (antibody, V domains shown)
VH: B1 VH with S30D, S33G, N35H, S49A, K58T, A106H
VL: B1 VL with L30V, V33L, L94T
notes: VH/VL only
B21: 367_A01 (antibody, V domains shown)
VH: B1 VH with S49A, N50S, K58T, S59G, A106H
VL: B1 VL with S31T, V33L, V47L
notes: VH/VL only
B22: 368_E11 (antibody, V domains shown)
VH: B1 VH with S30D, S33G, N35H, S49A, K58T, A106H
VL: B1 VL with L30I, V47L, A55H, D93E
notes: VH/VL only
B23: 366_D07 (antibody, V domains shown)
VH: not shown
VL: B1 VL with S31T, V33L, V47L, R54L, D93S, L94S
notes: VH/VL only
B24: 366_C02 (antibody, V domains shown)
VH: B1 VH with S31D, S49A, K58T, S59G, A106H
VL: B1 VL with L30V, V33L, V47L, L94N
notes: VH/VL only
B25: 368_G05 (antibody, V domains shown)
VH: B1 VH with S30D, S49A, N50G, K58T, A106H
VL: B1 VL with S31T, V47L, R54L, A55H, D93N, L94T
notes: VH/VL only
B26: 365_G12 (antibody, V domains shown)
VH: B1 VH with S33G, S49A, N50G, G55S, K58T
VL: B1 VL with D93S, L94N
notes: VH/VL only
B27: 366_A05 (antibody, V domains shown)
VH: B1 VH with S49A, N50G, G55S, K58T, S59G, A106H
VL: B1 VL with S31T, R54L, D93N, L94T
notes: VH/VL only
B28: 367_F05 (antibody, V domains shown)
VH: B1 VH with S33G, S49A, N50S, K58T, S59G
VL: B1 VL with V47L, D93S, L94S
notes: VH/VL only
B29: 366_B04 (antibody, V domains shown)
VH: B1 VH with S30D, S49A, N50G, S59G, A106H
VL: B1 VL with S31T, A55H, L94T
notes: VH/VL only
B30: 367_C03 (antibody, V domains shown)
VH: B1 VH with S49A, K58T, S59G
VL: B1 VL with A51T, D93E, L94N
notes: VH/VL only

Residue numbers refer to the chain shown, from its start.
Further: test concentration or dose not given here.

The target of one assay is human ACVR2A (human, UniProt P27037 20-135, limits assumed). Briefly: ELISA. The method in brief: (§1)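 mAb binding by ELISA; antigens: hu ACVR2A, mu ACVR2A; pos ctrl biotinylated goat anti-hu kappa LC; neg ctrl hu Fc.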
Sequence of human ACVR2A (P27037 20-135 limits assumed): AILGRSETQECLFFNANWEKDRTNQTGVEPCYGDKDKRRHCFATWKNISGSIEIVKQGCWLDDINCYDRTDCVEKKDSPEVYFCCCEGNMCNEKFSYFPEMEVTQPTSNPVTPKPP
(ELISA stands for enzyme-linked immunosorbent assay.)
Molecule B1 yielded an optical density of 3.12 OD.
For B2, the optical density was 2.31 OD.
On the same count and under the same terms, the value for B3 was 2.18 OD; that for B4 was 0.738 OD.
B5 showed an optical density of 2.71 OD.
B6 yielded an optical density of 1.87 OD.
As for B7, the optical density amounted to 3.03 OD.
Same read-out and setting: the value for B8 was 2.44 OD; that for B9 was 2.27 OD; that for B10 was 2.25 OD.
On the same count and under the same terms, the value for B11 was 1.79 OD.
In turn, B12 displayed an optical density of 1.69 OD.
With B13, the optical density stood at 3.02 OD.
On the same count and under the same terms, as for B14, the figure is 2.72 OD; as for B15, 2.61 OD; as for B16, 1.15 OD.
On the same count and under the same terms, the value for B17 was 2.64 OD; that for B18 was 2.38 OD.
B19 returned an optical density of 2.25 OD.
The same measure, in the same setting: the value for B20 was 2.44 OD; that for B21 was 3.18 OD.
The same measure, in the same setting: the value for B22 was 2.57 OD.
Same read-out and setting: the value for B23 was 2.41 OD; that for B24 was 3.03 OD.
Consider B25, for which the optical density amounted to 2.17 OD.
For B26, the optical density is 2.74 OD.
With B27, the optical density turned out to be 2.62 OD.
The molecule B28 had an optical density of 2.27 OD.
The same measure, in the same setting: as for B29, the figure is 2.81 OD.
B30 showed an optical density of 2.3 OD.

The next assay deals with mouse ACVR2A (mouse, UniProt P27038 20-135, limits assumed). Briefly: ELISA. The gist of the method: as §1
Sequence of mouse ACVR2A (P27038 20-135 limits assumed): as the sequence (P27037 20-135 limits assumed) above, with K20R, V73I counted along it
In turn, B1 came in with an optical density of 3.18 OD.
Same read-out and setting: as for B2, the figure is 2.41 OD.
Regarding B3, the optical density was 2.41 OD.
Same read-out and setting: the value for B4 was 1.03 OD; that for B5 was 2.86 OD; that for B6 was 2.03 OD.
The same measure, in the same setting: as for B7, the figure is 3.14 OD; as for B8, 2.74 OD; as for B9, 2.55 OD.
With B10, the optical density was determined as 2.45 OD.
The same measure, in the same setting: as for B11, the figure is 1.93 OD.
Consider B12, for which the optical density was 1.7 OD.
Same read-out and setting: the value for B13 was 3.2 OD; that for B14 was 2.68 OD; that for B15 was 2.92 OD.
Regarding B16, the optical density turned out to be 1.12 OD.
Still for that read-out and setting: as for B17, the figure is 2.69 OD; as for B18, 2.27 OD; as for B19, 2.61 OD.
B20: the optical density stood at 2.81 OD.
In turn, B21 came in with an optical density of 3.28 OD.
On the same count and under the same terms, as for B22, the figure is 2.92 OD; as for B23, 2.62 OD; as for B24, 3.04 OD.
As for B25, the optical density turned out to be 2.42 OD.
On the same count and under the same terms, as for B26, the figure is 2.75 OD; as for B27, 2.6 OD.
Same read-out and setting: the value for B28 was 2.48 OD; that for B29 was 3.05 OD; that for B30 was 2.81 OD.

Another assay has as its target T1, biotinylated goat anti-human kappa light chain.
T1 construct: Positive control of the ELISA
Briefly: ELISA; positive control. The gist of the method: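 Monoclonal antibodies were first applied to human or mouse ACVR2A, alongside biotinylated goat anti-human kappa light chain (positive control) and human Fc (negative control); binding was then determined by ELISA.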
As for B1, the optical density is 3.39 OD.
Still for that read-out and setting: as for B2, the figure is 3.6 OD; as for B3, 3.45 OD; as for B4, 3.52 OD.
Molecule B5 showed an optical density of 3.55 OD.
As for B6, the optical density is 3.44 OD.
The molecule B7 yielded an optical density of 3.69 OD.
In turn, B8 displayed an optical density of 3.47 OD.
In turn, B9 showed an optical density of 3.57 OD.
In turn, B10 displayed an optical density of 3.26 OD.
Consider B11, for which the optical density worked out at 3.28 OD.
B12 yielded an optical density of 3.52 OD.
The same measure, in the same setting: as for B13, the figure is 3.29 OD.
In turn, B14 had an optical density of 3.46 OD.
The same measure, in the same setting: as for B15, the figure is 3.71 OD; as for B16, 3.31 OD.
B17 gave an optical density of 3.57 OD.
For B18, the optical density came out at 3.52 OD.
Molecule B19 gave an optical density of 3.63 OD.
On the same count and under the same terms, as for B20, the figure is 3.62 OD; as for B21, 3.51 OD.
Same read-out and setting: the value for B22 was 3.73 OD.
B23 displayed an optical density of 3.38 OD.
Consider B24, for which the optical density is 3.43 OD.
The same measure, in the same setting: as for B25, the figure is 3.35 OD.
On the same count and under the same terms, as for B26, the figure is 3.55 OD; as for B27, 3.48 OD; as for B28, 3.44 OD.
The same measure, in the same setting: the value for B29 was 3.4 OD; that for B30 was 3.51 OD.
